T1: purified recombinant C35 protein generated in E. coli (human, UniProt Q9BRT3 1-115, limits assumed)
T1 construct: Generated and purified from E. coli with cleavage of selection tags; also called hC35 protein; soluble C35 protein
T1 sequence: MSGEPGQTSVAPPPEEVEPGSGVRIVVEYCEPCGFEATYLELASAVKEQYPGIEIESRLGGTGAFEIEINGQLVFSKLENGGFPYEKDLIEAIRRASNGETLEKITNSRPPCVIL

T2: C35 protein, recombinant, bacterially synthesized (human, UniProt Q9BRT3 1-115, limits assumed)
T2 construct: also called hC35 protein; bacterially-synthesized C35
T2 sequence: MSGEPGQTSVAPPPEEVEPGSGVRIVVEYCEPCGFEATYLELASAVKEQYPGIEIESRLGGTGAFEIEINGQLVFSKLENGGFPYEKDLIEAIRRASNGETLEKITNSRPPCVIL


What follows are binders tested against T1, purified recombinant C35 protein … (assay: ELISA, hybridoma supernatant on coated C35 protein).

| binding result | Binder |
| --- | --- |
| binds | hybridoma clone 1B3 antibody (antibody, mouse IgG1, V domains shown, Murine IgG1 from BCA34.hC35 immunization) VH: EVQLQESGPSLVKPSQTLSLTCSVTGDSITSGYWNWIRKFPGNKLEYVGYISYSGGTYYNPSLKSRISITRDTSKNHYYLQLNSVTTEDTATYYCARGAYYGGAFFPYFDVWGAGTTVTVSS VL: DVQITQSPSFLAASPGETITINCRASKYISKHLVWYQEKPGETKKLLIYSGSTLQSGLPSRFSGSGSGTDFTLTISSLEPEDFAMYYCQQHNEYPLTFGAGTKLELK |
| binds | hybridoma clone 3E10 antibody (antibody, mouse IgG1, V domains shown, Murine IgG1 kappa from BCA34.hC35 immunization) VH: EVQLQESGPSLVKPSQTLSLTCSVTGDSITSGYWNWIRKFPGNKLEYVGYISYSGGTYYNPSLKSRISITRDTSKNHYYLQLNSVTTEDTATYYCARGAYYGGAFFPYFDVWGAGTTVTVSS VL: DVQITQSPSFLAASPGETITINCRASKYISKHLVWYQEKPGETKKLLIYSGSTLQSGLPSRFSGSGSGTDFTLTISSLEPEDFAMYYCQQHNEYPLTFGAGTKLELK |

Each binder was assayed against T2, C35 protein, recombinant, bacterially … (assay: ELISA screen of hybridoma supernatants on plates coated with C35 protein).

| binding result | Binder |
| --- | --- |
| binds | 1B3 monoclonal antibody (antibody, V domains shown, Mouse IgG1 kappa, tested as hybridoma supernatant) VH: EVQLQESGPSLVKPSQTLSLTCSVTGDSITSGYWNWIRKFPGNKLEYVGYISYSGGTYYNPSLKSRISITRDTSKNHYYLQLNSVTTEDTATYYCARGAYYGGAFFPYFDVWGAGTTVTVSS VL: DVQITQSPSFLAASPGETITINCRASKYISKHLVWYQEKPGETKKLLIYSGSTLQSGLPSRFSGSGSGTDFTLTISSLEPEDFAMYYCQQHNEYPLTFGAGTKLELK |
| binds | 3E10 monoclonal antibody (antibody, V domains shown, Mouse IgG1 kappa, tested as hybridoma supernatant) VH: EVQLQESGPSLVKPSQTLSLTCSVTGDSITSGYWNWIRKFPGNKLEYVGYISYSGGTYYNPSLKSRISITRDTSKNHYYLQLNSVTTEDTATYYCARGAYYGGAFFPYFDVWGAGTTVTVSS VL: DVQITQSPSFLAASPGETITINCRASKYISKHLVWYQEKPGETKKLLIYSGSTLQSGLPSRFSGSGSGTDFTLTISSLEPEDFAMYYCQQHNEYPLTFGAGTKLELK |

What follows are binders tested against HLA-A*0201 (human, UniProt A*02:01) (assay: fluorescence polarization competition, test peptide at 100 uM against fluorescent-labeled peptide on HLA-A*0201; from Ymax, calibrated with irrelevant (0%) and relevant (100%) competitor).

| Binder | % inhibition [%] |
| --- | --- |
| FEIEINGQL [C35 peptide F65 to L73] | 74.8 |
| GTGAFEIEI [C35 peptide G61 to I69] | 46.5 |
| SVAPPPEEV [C35 peptide S9 to V17] | 96.9 |
| ITNSRPPCV [C35 peptide I105 to V113] | 86.4 |

Other lines, results leading:

| % inhibition [%] | Binder |
| --- | --- |
| 47.3 | TYLELASAV [C35 peptide T38 to V46] |
| 90.8 | SGVRIVVEY [C35 peptide S21 to Y29] |

— patent publication US20090297440A1 (published 2009)
